This note sets out measurements from patent US20180230233A1 (Genentech, published 2018).

B1: huE104.v9 IgG1 (chimeric heavy chain) (antibody, V domains shown)
VH: QSLEESGGGLFKPTDTLTLTCTVSRFSLIGYAITWVRQSPENGLEWIGGISSAATTFYSSWAKSRSTITRNTNENTVTLKMTSLTAADTATYFCARDPRGYGAALDRLDLWGQGTLVTVSS
VL: DIQMTQSPSSLSASVGDRVTITCQSIKSVYNNRLGWYQQKPGKAPKLLIYETSILTSGVPSRFSGSGSGTDFTLTISSLQPEDFATYYCAGGFDRSGDTTFGQGTKVEIK
notes: also called E104.v9 chimeric clone
B2: huE104.v6 IgG1 (antibody, V domains shown)
VH: EVQLVESGPGLVKPSETLSLTCTVSRFSLIGYAITWIRQPPGKGLEWIGGISSAATTFYSSWAKSRVTISRDTSKNQVSLKLSSVTAADTAVYYCARDPRGYGAALDRLDLWGQGTLVTVSS
VL: DAQLTQSPSSLSASVGDRVTITCQSIKSVYNNRLGWYQQKPGKPPKLLIYETSILTSGVPSRFSGSGSETDFTLTISSLQPEDFATYFCAGGFDRSGDTTFGQGTKVEIK
B3: huE104.v5 IgG1 (antibody, V domains shown)
VH: EVQLVESGPGLVKPSETLSLTCTVSRFSLIGYAITWIRQPPGKGLEWIGGISSAATTFYSSWAKSRVTISVDTSKNQFSLKLSSVTAADTAVYYCARDPRGYGAALDRLDLWGQGTLVTVSS
VL: DAQLTQSPSSLSASVGDRVTITCQSIKSVYNNRLGWYQQKPGKPPKLLIYETSILTSGVPSRFSGSGSETDFTLTISSLQPEDFATYFCAGGFDRSGDTTFGQGTKVEIK
B4: huE104.v3 IgG1 (antibody, V domains shown)
VH: EVQLVESGPGLVKPSETLSLTCTVSRFSLIGYAITWVRQPPGKGLEWIGGISSAATTFYSSWAKSRSTISRDTSKNQVSLKLSSVTAADTAVYFCARDPRGYGAALDRLDLWGQGTLVTVSS
VL: DIQMTQSPSSLSASVGDRVTITCQSIKSVYNNRLGWYQQKPGKAPKLLIYETSILTSGVPSRFSGSGSGTDFTLTISSLQPEDFATYYCAGGFDRSGDTTFGQGTKVEIK
B5: huE104.v7 IgG1 (antibody, V domains shown)
VH: EVQLVESGPGLVKPSETLSLTCTVSRFSLIGYAITWVRQPPGKGLEWIGGISSAATTFYSSWAKSRSTISRDTSKNQVSLKLSSVTAADTAVYFCARDPRGYGAALDRLDLWGQGTLVTVSS
VL: DAQLTQSPSSLSASVGDRVTITCQSIKSVYNNRLGWYQQKPGKPPKLLIYETSILTSGVPSRFSGSGSETDFTLTISSLQPEDFATYFCAGGFDRSGDTTFGQGTKVEIK
B6: hu31A.v14 IgG1 (antibody, V domains shown)
VH: EVQLVESGGGLVQPGGSLRLSCAASGFTFSDYGMVWVRQAPGKGLEWVAFISSGSSTVYYADTMKGRFTISRDNSKNTLYLQMNSLRAEDTAVVYCTRRDNYDWYFDVWGQGTLVTVSS
VL: DIQMTQSPSSLSASVGDRVTITCSASSSVTYMYWYQQKPGKSPKPWIYRTSDLASGVPSRFSGSGSGTDFTLTISSLQPEDFATYYCQHYHSYPLTFGQGTKVEIK
B7: hu31A.v8 IgG1 (antibody, V domains shown)
VH: EVQLVESGGGLVQPGGSLRLSCAASGFTFSSFGMHWVRQAPGKGLEWVAFISSGSSTVYYADTMKGRFTISRDNSKNTLYLQMNSLRAEDTAVVYCARRDNYDWYFDVWGQGTLVTVSS
VL: DIQMTQSPSSLSASVGDRVTITCSASSSVTYMYWYQQKPGKSPKPWIYRTSDLASGVPSRFSGSGSGTDFTLTISSLQPEDFATYYCQHYHSYPLTFGQGTKVEIK
notes: also called v8 (of hu31A)
B8: hu31A.v5 IgG1 (antibody, V domains shown)
VH: EVQLVESGGGLVQPGGSLRLSCAASGFTFSDYGMVWVRQAPGKGLEWVAFISSGSSTVYYADTMKGRFTISRDNSKNTLYLQMNSLRAEDTAVVYCARRDNYDWYFDVWGQGTLVTVSS
VL: DIQMTQSPSSLSASVGDRVTITCSASSSVTYMYWYQQKPGKSPKPWIYRTSDLASGVPSRFSGSGSGTDFTLTISSLQPEDFATYYCQHYHSYPLTFGQGTKVEIK
notes: also called v5 (of hu31A)
B9: hu31A.v13 IgG1 (antibody, V domains shown)
VH: EVQLVESGGGLVQPGGSLRLSCAASGFTFSDYGMVWVRQAPGKGLEWVAFISSGSSTVYYADTMKGRFTISRDNSKNTLYLQMNSLRAEDTAVVYCTRRDNYDWYFDVWGQGTLVTVSS
VL: DIQMTQSPSSLSASVGDRVTITCSASSSVTYMYWYQQKPGKAPKLLIYRTSDLASGVPSRFSGSGSGTDFTLTISSLQPEDFATYYCQHYHSYPLTFGQGTKVEIK
B10: hu31A.v3 IgG1 (antibody, V domains shown)
VH: EVQLVESGGGLVQPGGSLRLSCAASGFTFSDYGMVWVRQAPGKGLEWVGFISSGSSTVYYADTMKGRFTISRDNSKNTLYLQMNSLRAEDTAVVYCARRDNYDWYFDVWGQGTLVTVSS
VL: DIQLTQSPSSLSASVGDRVTITCSASSSVTYMYWYQQKPGKSPKPWIYRTSDLASGVPSRFSGSGSGTDYTLTISSLQPEDFATYYCQHYHSYPLTFGQGTKVEIK
notes: also called v3 (of hu31A)
B11: hu31A.v9 IgG1 (antibody, V domains shown)
VH: EVQLVESGGGLVQPGGSLRLSCAASGFTFSSFGMHWVRQAPGKGLEWVAFISSGSSTVYYADTMKGRFTISRDNSKNTLYLQMNSLRAEDTAVVYCARRDNYDWYFDVWGQGTLVTVSS
VL: DIQLTQSPSSLSASVGDRVTITCSASSSVTYMYWYQQKPGKSPKPWIYRTSDLASGVPSRFSGSGSGTDYTLTISSLQPEDFATYYCQHYHSYPLTFGQGTKVEIK
notes: also called v9 (of hu31A)
B12: hu31A.v15 IgG1 (antibody, V domains shown)
VH: EVQLVESGGGLVQPGGSLRLSCAASGFTFSDYGMVWVRQAPGKGLEWVAFISSGSSTVYYADTMKGRFTISRDNSKNTLYLQMNSLRAEDTAVVYCTRRDNYDWYFDVWGQGTLVTVSS
VL: DIQLTQSPSSLSASVGDRVTITCSASSSVTYMYWYQQKPGKSPKPWIYRTSDLASGVPSRFSGSGSGTDYTLTISSLQPEDFATYYCQHYHSYPLTFGQGTKVEIK
B13: hu31A.v2 IgG1 (antibody, V domains shown)
VH: EVQLVESGGGLVQPGGSLRLSCAASGFTFSDYGMVWVRQAPGKGLEWVGFISSGSSTVYYADTMKGRFTISRDNSKNTLYLQMNSLRAEDTAVVYCARRDNYDWYFDVWGQGTLVTVSS
VL: DIQMTQSPSSLSASVGDRVTITCSASSSVTYMYWYQQKPGKSPKPWIYRTSDLASGVPSRFSGSGSGTDFTLTISSLQPEDFATYYCQHYHSYPLTFGQGTKVEIK
notes: also called v2 (of hu31A)
B14: hu31A.v10 IgG1 (antibody, V domains shown)
VH: EVQLVESGGGLVQPGGSLRLSCAASGFTFSDYGMVWVRQAPGKGLEWVAFISSGSSTVYYADTMKGRFTISRDNSKNTLYLQMNSLRAEDTAVYYCTRRNYDDWYFDVWGQGTLVTVSS
VL: DIQMTQSPSSLSASVGDRVTITCSASSSVTYMYWYQQKPGKAPKLLIYRTSDLASGVPSRFSGSGSGTDFTLTISSLQPEDFATYYCQHYHSYPLTFGQGTKVEIK
notes: also called v10 (of hu31A)
B15: hu31A.v12 IgG1 (antibody, V domains shown)
VH: EVQLVESGGGLVQPGGSLRLSCAASGFTFSDYGMVWVRQAPGKGLEWVAFISSGSSTVYYADTMKGRFTISRDNSKNTLYLQMNSLRAEDTAVYYCTRRNYDDWYFDVWGQGTLVTVSS
VL: DIQLTQSPSSLSASVGDRVTITCSASSSVTYMYWYQQKPGKSPKPWIYRTSDLASGVPSRFSGSGSGTDYTLTISSLQPEDFATYYCQHYHSYPLTFGQGTKVEIK
notes: also called v12 (of hu31A)
B16: hu31A.v6 IgG1 (antibody, V domains shown)
VH: EVQLVESGGGLVQPGGSLRLSCAASGFTFSDYGMVWVRQAPGKGLEWVAFISSGSSTVYYADTMKGRFTISRDNSKNTLYLQMNSLRAEDTAVVYCARRDNYDWYFDVWGQGTLVTVSS
VL: DIQLTQSPSSLSASVGDRVTITCSASSSVTYMYWYQQKPGKSPKPWIYRTSDLASGVPSRFSGSGSGTDYTLTISSLQPEDFATYYCQHYHSYPLTFGQGTKVEIK
notes: also called v6 (of hu31A)
B17: hu31A.v7 IgG1 (antibody, V domains shown)
VH: EVQLVESGGGLVQPGGSLRLSCAASGFTFSSFGMHWVRQAPGKGLEWVAFISSGSSTVYYADTMKGRFTISRDNSKNTLYLQMNSLRAEDTAVVYCARRDNYDWYFDVWGQGTLVTVSS
VL: DIQMTQSPSSLSASVGDRVTITCSASSSVTYMYWYQQKPGKAPKLLIYRTSDLASGVPSRFSGSGSGTDFTLTISSLQPEDFATYYCQHYHSYPLTFGQGTKVEIK
notes: also called v7 (of hu31A)
B18: hu31A.v4 IgG1 (antibody, V domains shown)
VH: EVQLVESGGGLVQPGGSLRLSCAASGFTFSDYGMVWVRQAPGKGLEWVAFISSGSSTVYYADTMKGRFTISRDNSKNTLYLQMNSLRAEDTAVVYCARRDNYDWYFDVWGQGTLVTVSS
VL: DIQMTQSPSSLSASVGDRVTITCSASSSVTYMYWYQQKPGKAPKLLIYRTSDLASGVPSRFSGSGSGTDFTLTISSLQPEDFATYYCQHYHSYPLTFGQGTKVEIK
notes: also called v4 (of hu31A)
B19: hu31A.v1 IgG1 (antibody, V domains shown)
VH: EVQLVESGGGLVQPGGSLRLSCAASGFTFSDYGMVWVRQAPGKGLEWVGFISSGSSTVYYADTMKGRFTISRDNSKNTLYLQMNSLRAEDTAVVYCARRDNYDWYFDVWGQGTLVTVSS
VL: DIQMTQSPSSLSASVGDRVTITCSASSSVTYMYWYQQKPGKAPKLLIYRTSDLASGVPSRFSGSGSGTDFTLTISSLQPEDFATYYCQHYHSYPLTFGQGTKVEIK
notes: also called v1 (of hu31A)

T1 sequence (Q15661 other isoform, or with tags, fused parts or gaps): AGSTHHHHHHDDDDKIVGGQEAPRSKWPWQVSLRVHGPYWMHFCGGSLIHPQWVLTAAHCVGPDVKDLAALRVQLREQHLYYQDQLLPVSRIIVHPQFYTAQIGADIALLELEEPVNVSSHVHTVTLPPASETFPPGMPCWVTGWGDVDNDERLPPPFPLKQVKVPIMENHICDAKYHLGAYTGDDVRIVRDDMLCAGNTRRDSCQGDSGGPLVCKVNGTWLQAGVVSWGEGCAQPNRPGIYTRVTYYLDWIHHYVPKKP

This assay addresses T1, recombinant His-tagged human tryptase beta 1 monomer (human, UniProt Q15661 31-275).
T1 construct: also called His6-tagged tryptase monomer; human tryptase b1 monomer
As to the kind of experiment: SPR (BIAcore T200); IgG1 captured by anti-human Fc, His-tagged monomer injected. The method, then:
The assay can use a BIAcore® T200 or an equivalent device. Briefly, BIAcore® Series S CM5 sensor chips (or equivalent sensor chips) are immobilized with monoclonal mouse anti-human IgG (Fc) antibody and anti-tryptase antibodies are subsequently captured on the flow cell. Serial 3-fold dilutions of the human tryptase beta 1 monomer are injected at a flow rate of 30 μl/min. Each sample is analyzed with 3 min association and 10 min dissociation. The assay is performed at 25° C. After each injection, the chip is regenerated using 3 M MgCl₂. Binding response is corrected by subtracting the response units (RU) from a flow cell capturing an irrelevant IgG at similar density. A 1:1 Languir model of simultaneous fitting of kₒₙ and koff is used for kinetics analysis.
In this experiment, all the humanized variants were expressed as IgG by transient transfection of 293 cells. IgG was purified with protein G affinity chromatography. The affinity of each variant for recombinant His-tagged human tryptase beta 1 monomer (SEQ ID NO: 128) was determined by SPR analysis using a BIAcore® T200. BIAcore® Series S CM5 sensor chips were immobilized with monoclonal mouse anti-human IgG (Fc) antibody (Human antibody capture kit from GE Healthcare) and anti-tryptase variants were subsequently captured on each flow cell. Serial 3-fold dilutions of the human tryptase beta 1 monomer were injected at a flow rate of 30 μl/min. Each sample was analyzed with 3 min association and 10 min dissociation. After each injection, the chip was regenerated using 3 M MgCl₂. Binding response was corrected by subtracting the response units (RU) from a flow cell capturing an irrelevant IgG at similar density. A 1:1 Languir model of simultaneous fitting of kₒₙ and koff was used for kinetics analysis.
What is called Kd is the concentration at which binding is half-saturated. Consider B1, for which the Kd stood at 0.24 nM. Take B2: the Kd is 0.14 nM. B3: the Kd came to 0.18 nM.

As to B4, the Kd turned out to be 0.21 nM.

For B5, the Kd turned out to be 0.25 nM. With B6, the Kd was found to be 1.34 nM. As for B7, the Kd was 0.94 nM. As to B8, the dissociation constant (Kd) stood at 1.68 nM. With B9 the figure was 9.65 nM; with B10, 0.79 nM; with B11, 0.94 nM.

As to B12, the Kd worked out at 1.32 nM. As for B13, the Kd came to 0.74 nM. Consider B14, for which the Kd came out at 1.19 nM. Consider B15, for which the Kd was 0.43 nM. As to B16, the equilibrium dissociation constant (Kd) stood at 1.65 nM. In the case of B17, the Kd turned out to be 2.06 nM. As for B18, the Kd stood at 11.8 nM. Consider B19, for which the dissociation constant Kd came out at 4.04 nM.
